# Literature values as cited in article PMC4865444.
# Experiments:
# [1] = biological target: Nef SF2 (Human immunodeficiency virus 1) (UniProt P03407)
# [2] = biological target: Nef NL4-3 (Human immunodeficiency virus 1) (UniProt P04324)
# Sequence of UniProt P03407 (P03407 2-210): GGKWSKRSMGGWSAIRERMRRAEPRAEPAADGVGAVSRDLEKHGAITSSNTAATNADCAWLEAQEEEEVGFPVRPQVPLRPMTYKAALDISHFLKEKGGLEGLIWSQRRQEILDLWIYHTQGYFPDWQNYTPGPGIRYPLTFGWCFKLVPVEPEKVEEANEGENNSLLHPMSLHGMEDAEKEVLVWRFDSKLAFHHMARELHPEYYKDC
substance,measurement,setting,value
Hck SH3 (from UniProt P08631),Kd,[1],640 nM
same,Kd,[2],1400 nM
